The source of these data is PMC2928814, “Host Imprints on Bacterial Genomes—Rapid, Divergent Evolution in Individual Patients”.

The series deals with T1, Fur (ferric uptake regulator) (Escherichia coli (strain of the fur …, UniProt P0A9A9 1-148)).
T1 sequence: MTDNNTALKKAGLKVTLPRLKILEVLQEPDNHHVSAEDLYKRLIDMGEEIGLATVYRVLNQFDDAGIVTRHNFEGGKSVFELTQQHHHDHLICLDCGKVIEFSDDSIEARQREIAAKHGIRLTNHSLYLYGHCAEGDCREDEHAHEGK
In words: EMSA; dimer and tetramer complexes; EMSA as in cited ref 52, binding buffer not given; annealing buffer 10 mM Tris-HCl, 50 mM NaCl, 1 mM EDTA. To be noted: protein: recombinant; tags: IMPACT system (intein tag, self-cleaved; no residual tag stated); chain copies: 4; label: Cy3 at 3' end of S3 as printed; blunt.

B1: fecIR Fur box, E. coli 83972 (dsDNA)
DNA 1: TCCAATTGTAATGATAACCATTCTCATATTAATATGACTACGTGA
DNA 2: TCACGTAGTCATATTAATATGAGAATGGTTATCATTACAATTGGA
Consider B1, for which the binding result is “binds”.
